The record followed here is patent publication US20230105209A1 (ACADEMIA SINICA, published 2023).

In this assay the target is SARS-CoV-2 spike S2 (SARS-CoV-2, UniProt P0DTC2 686-1213). The assay is described as follows: ELISA. A general note: An ELISA detects its analyte on a solid surface through an enzyme-linked reagent.

B1: m31A7 monoclonal antibody (chimeric IgG1) (antibody, V domains shown)
VH: EVQLQQSGPEMVKPGASVKISCKTSGYTFTEYTIYWVKQSHGKSLEWLGGINPNIGDTTYNQKFKGKATLTVDTSSSTAYMELRSLTSEDSAVYYCAREVYNYSFAYWGQGTLVTVSA
VL: DIVMSQSPSSLAVSVGEKVTMSCKSSQSLLYSSNQKNYLAWYQQKLGQTPKLLIYWASSRESGVPDRFTGSGSGTDFTLTISSVRAEDLAVYYCQQYYRYPLTFGVGTKLELKR
notes: also called m31A7 mAb; m31A7 IgG
B1: the binding result is given as “no binding”.
